# Measured values from patent US20240261333A1 (published 2024).
# T1: CHCHD3 (human, UniProt Q9NX63 2-227, limits assumed)
# T1 construct: also called NP_001304106.1 (+1)
# T1 sequence (looked up): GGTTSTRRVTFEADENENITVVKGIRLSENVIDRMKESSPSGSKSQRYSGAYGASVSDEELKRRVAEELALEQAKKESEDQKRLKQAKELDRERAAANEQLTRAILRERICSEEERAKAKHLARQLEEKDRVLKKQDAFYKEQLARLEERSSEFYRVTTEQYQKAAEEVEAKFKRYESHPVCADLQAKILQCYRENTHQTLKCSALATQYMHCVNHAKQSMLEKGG
# T2: PUF60 (human, UniProt Q9UHX1 1-559, limits assumed)
# T2 construct: also called NP_016868724.1
# T2 sequence (looked up): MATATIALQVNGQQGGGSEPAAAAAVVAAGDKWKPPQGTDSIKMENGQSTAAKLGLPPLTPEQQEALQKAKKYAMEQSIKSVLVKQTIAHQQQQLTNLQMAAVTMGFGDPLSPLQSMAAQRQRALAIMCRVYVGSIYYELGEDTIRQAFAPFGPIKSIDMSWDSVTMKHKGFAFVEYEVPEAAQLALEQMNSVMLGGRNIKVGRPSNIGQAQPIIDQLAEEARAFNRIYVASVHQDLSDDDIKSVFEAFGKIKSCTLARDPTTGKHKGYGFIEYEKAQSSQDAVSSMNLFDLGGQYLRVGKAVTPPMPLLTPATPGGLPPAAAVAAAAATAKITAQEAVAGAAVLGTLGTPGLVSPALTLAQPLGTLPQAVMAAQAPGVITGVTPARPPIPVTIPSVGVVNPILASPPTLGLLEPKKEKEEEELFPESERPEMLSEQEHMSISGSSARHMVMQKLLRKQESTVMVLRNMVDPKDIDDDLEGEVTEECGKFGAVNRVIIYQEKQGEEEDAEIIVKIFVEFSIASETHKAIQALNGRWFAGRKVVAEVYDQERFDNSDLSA
# T3: CPSF7 (human, UniProt Q8N684 1-471)
# T3 construct: also called NP_001129512.1 (+5)
# T3 sequence (looked up): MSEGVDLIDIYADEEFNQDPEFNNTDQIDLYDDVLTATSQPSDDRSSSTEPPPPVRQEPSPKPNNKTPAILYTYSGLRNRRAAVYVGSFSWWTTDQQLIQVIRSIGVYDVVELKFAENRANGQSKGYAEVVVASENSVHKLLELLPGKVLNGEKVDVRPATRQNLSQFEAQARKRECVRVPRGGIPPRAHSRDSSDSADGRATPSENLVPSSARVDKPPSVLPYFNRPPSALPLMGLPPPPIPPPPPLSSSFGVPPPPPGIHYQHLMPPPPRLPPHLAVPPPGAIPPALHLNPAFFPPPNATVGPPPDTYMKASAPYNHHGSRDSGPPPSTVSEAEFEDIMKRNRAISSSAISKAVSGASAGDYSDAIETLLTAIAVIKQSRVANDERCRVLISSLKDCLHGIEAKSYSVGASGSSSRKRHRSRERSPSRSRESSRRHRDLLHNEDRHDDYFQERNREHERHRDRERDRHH
# B1: N-terminal FLAG tagged B3GNT2 (enzyme, human, UniProt Q9NY97 1-397, looked up)
# chain: MSVGRRRIKLLGILMMANVFIYFIMEVSKSSSQEKNGKGEVIIPKEKFWKISTPPEAYWNREQEKLNRQYNPILSMLTNQTGEAGRLSNISHLNYCEPDLRVTSVVTGFNNLPDRFKDFLLYLRCRNYSLLIDQPDKCAKKPFLLLAIKSLTPHFARRQAIRESWGQESNAGNQTVVRVFLLGQTPPEDNHPDLSDMLKFESEKHQDILMWNYRDTFFNLSLKEVLFLRWVSTSCPDTEFVFKGDDDVFVNTHHILNYLNSLSKTKAKDLFIGDVIHNAGPHRDKKLKYYIPEVVYSGLYPPYAGGGGFLYSGHLALRLYHITDQVHLYPIDDVYTGMCLQKLGLVPEKHKGFRTFDIEEKNKNNICSYVDLMLVHSRKPQEMIDIWSQLQSAHLKC
# notes: FLAG-tagged ORF overexpressed in cells; pulled down from lysate with mouse anti-FLAG; also called N-FLAG B3GNT2; N-term FLAG; not shown: N-terminal FLAG tag
# B2: N-terminal FLAG tagged B3GNT2 (enzyme, human, UniProt Q9NY97 1-397, looked up)
# chain: B1 chain
# notes: FLAG-tagged ORF overexpressed in A375 cells; pulled down from the lysate with mouse anti-FLAG; also called N-FLAG B3GNT2; N-term FLAG; not shown: N-terminal FLAG tag
# Columns and labels:
# Assay in all cases: co-IP with anti-FLAG, N-FLAG B3GNT2, mass spectrometry
# RPS26 = RPS26 (human, UniProt P62854 2-115)
# TPM3 = molecular target: T4, TPM3 (human, UniProt P06753-2 2-248)
# T4 construct: also called NP_705935.1
# T4 sequence (P06753 other isoform, or with tags, fused parts or gaps limits assumed): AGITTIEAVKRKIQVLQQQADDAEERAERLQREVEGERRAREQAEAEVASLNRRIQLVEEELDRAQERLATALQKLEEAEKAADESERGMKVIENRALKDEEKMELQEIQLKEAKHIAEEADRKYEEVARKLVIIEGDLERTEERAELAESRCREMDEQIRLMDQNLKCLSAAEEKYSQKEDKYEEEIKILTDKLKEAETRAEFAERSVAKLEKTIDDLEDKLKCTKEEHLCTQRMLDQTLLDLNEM
# CHCHD3 = molecular target: T1, CHCHD3
# PUF60 = molecular target: T2, PUF60
# RPS20 = RPS20 (human, UniProt P60866 2-119)
# CPSF7 = molecular target: T3, CPSF7
Binder,co-IP mass spectrometry count (RPS26),co-IP mass spectrometry count (TPM3),co-IP mass spectrometry count (CHCHD3),"co-IP/MS count, N-term FLAG (PUF60)","co-IP/MS count, N-term FLAG (RPS20)","co-IP/MS count, N-term FLAG (CPSF7)"
B1,6,6,16,,,
B2,,,,6,4,12
